Measured values as given in the DeepSol protein solubility set.

Assay: soluble on expression in E. coli; label from the status in PepcDB or PDB records

| Sequence | soluble on expression in E. coli |
| --- | --- |
| QTQTVAIIGMGSRGLSILEQLIGMSRHADQQPLQIEVFDPQPPGSGLHSAQQPDYLMLNTMAGQLSAFSSAFPACEPAGWTFLQWCGAQDVRLDERGHVSTNGLGRPVAFGDFVPRALLGRYLQHSYRFLLQQCPAHVQVRHYAERVIKCRSRSDAPGFRLRSLTREMNVDALFLTVGHASSATELQDVGATVAIEGLGLTAMDTLASLTQGRGGRYVRDAGFAGWRYLPSGREPRVFMYSRSGLPFHARPHWYPTRHAALPRLFFTAVAIGDLRKQNGGGQLDFQADVLPLIKDEMRAVFYQTKVRLDAPRQLEAVQRTLREAVARPALFARLAEQWGEFDPEQWLTTQRWTGEAGTYGQWFVEWIKRDLALSRLGTAHSPIRQALEVWRDCRDLLRLVADRNGLTESSTLAFYDTWAGLGNRLVGGPQKERHEDLLALIDAGVVTVLAPMSDAQQADSRFDSVMAARVAPSGLSGNRSALLDDLREQGL | not soluble |
| MGSDKIHHHHHHMGLLTNLKDSISRAASTLFSEEDPKRIGIYGPPNAGKTTLANRIARDWTGDAVGPESHVPHETRRARRKENVEIERDGKKVTIDIVDTPGVTTKVDYTEFLEHDMEKDDAVRRSREATEGVAEAMHWLREDVDGVIYVLDSATDPFTQVNTMLIGIIESQDLPVLILANKIDLEESSVQRIRNAYPQHETIPLSALEGDNMDEVYDKIAEYFG | not soluble |
| MNDEDSEERRHHPKVPRLARQSHPEPPGPSSSTSSTPLFTDPTIHTILDQIGQRLASFSESDVKRIKNYLSTVTVTQEACVLLLLPNKEREKLMFAEIERHILENYEYSMIIHRYVNDVLKHAIETQFVNPDKLDESNDAWKDGLKMISEQKMRSSRYTAARARSQRFAIANDSYFPRPEIVPSTDHPVFASRPSVSTQEVRTGRQQIDQEVSGRKREFHGKLIPITGVVEEPSVRINAELQQSETQQIGDSSDQTDTATPISDIATHQDPENEISPSVTEGSNDIADDAGAGDDFSESTTGAVQPEQQASEHSNSEGVEKSSCAESLKEQPDQSSPAVSNTVSENSNTDSEICSGIDQNPNSDNLESTIDVGEPLRNTSDQPSPDPCSDVQIGVNSTTKQSTDPSVNVQLGHKSSDQPSTDPSAHAQLEDNCTIQPSTDPSSNDQLGDNTSDQNSTDPSSDVPMEDPGESGSAASTPPPDWDVAEVPIPQCSGHSDGNIGGTNEVTPPEQEAQVLAPRRSERSRIKNIWLSRDEVERLRYEFVPPPSRKDIPKCTAKKPEAEIPNVEPESSSTVESQRDEDQAVASASSVAEPLEEATTTSVPEPTEFQLSRDIYSTVKPTDEAHSPPIQAQPKKKATPRRKKADDVETVVADGTATIPKPKRKRPPRKKPEPKPNIVFETTPNPPTESFAANNNFQQFQFQNQPGSWTYNNGFGNGYGYGGGTTGYMDNLVGRGFDTVSQQPGFQNQGYEFTGLPANNSNNFPFL | not soluble |
| MPPDEIEIEPVRQSSDKMLYCEAESPPTVEKVKPARENSETDLEIEDDEKFFTTGQKELYLEACKLMGVVPVSYFIRNMEESYVNLNHHGLGPRGTKAIAIALVSNMAVTKLELEDNCIMEEGVLSLVEMLQENYYLQEMNISNNHLGLEGARIISDFFERNSSSIWSLELSGNDFKEDSAALLCQALSTNYQIKKLDLSHNQFSDVGGEHLGQMLAINVGLTSLDLSWNNFHTRGAVALCNGLRGNVTLTKLDLSMNGFGNEVALALGEVLRLNRCLVYLDIGGNDIGNEGASKISKGLESNESLRVLKLFLNPINMDGAILLILAIKRNPKSRMEELDISNVLVSEQFMKTLDGVYAVHPQLDVVFKAVQGLSPKKTIFLLTNPMKLIQSYADQHKITIVDFFKSLNPTGTMKMSVDEFQKVMIEQNKVPLNQYQVREVIKKLDEKTGMVNFSFLNTMKP | soluble |
| MDNLMLNNKIYLEGTVVSELEFSHEMYGEGFYTFNLEVMRLSDSKDLLNITVSERLITTMDLKIGTEIVVEGQLRSYNKFIDGNNKLILTVFARNIEYCEERSKNPNEIFLDGFICKEPVYRTTPFGREIADLLLAVNRSYNKSDYIPTIAWGRNSRFCKTLEVGDNIRIWGRLQSREYQKKISETEVVKKIAYEVSISKMEKVSVESEQNESGEEISLEHHHHHH | not soluble |
| MGSDKIHHHHHHMAAINAAVLQALRTMVRSEFQNALTKTESLYLKIASVVPSNTKSNTYGWLGSMPTMREWIGARVINSIKEHGYSITNRTFETTIGICRDDVEDEVIGTYKPMVQALAQEGEEFPDDLVFELLADGFSTLCYDGQNFFDTDHPVNEKHDGTGDNVSVANMALDAAYTGEPWFLLDTTRPLKPVIFQERRKLDLNTLFNPTDPAVWTNNEFQFGTDMRCEAGFGFWQMAFANKRALNADNLWDTIEKMKAFKRDGGKKLKIRPSLLVVPSSLEQAATKLLTRELIDENGTTVENELKGKVELLVVPQL | not soluble |
| MAWTFDEKSPIYLQIAYRVKLKIASKELSMGQQLLPVREFAQEAGVNPNTVQRAFQELEKEGLVYSARTSGRFVTEDEKLIDQKRHEIAQTLMKNFVTEMTAIGFSSPEIKTIITDYIEQTGKDL | not soluble |
| MLFDMLHSFHESRVIKSHHNLTQQPVSTFLLMGLDNSGKRKLSTTRTDGMMVVIVNHKTKTMTLCSLLRDTFVKIHSQQYHGYQRIESAYTYGGDAAAIATVEHYLNLPIDYYLTVNWDGFIRAIDDIGPVEVNVDRDFIGQDYWGKPEKFKAGLQSMSGARALAYARERHIDNDQHRGFRQQAVFYAMVKRLNQEGLSSKGAKVVGDLKDQMRTNLTNHDMLTLFKSRKTFKRYRVKRLTFQWRTFDVAGRSMVEVYPDSRVQVSRQLQAAAGLRPDLPSQTFTTNGHYRYASDESVESKADEAKADTHYGQSHVYVGHAGNTTIGKLPAAVPLKNGFRVSDRTETMYTVHLEHHHHHH | soluble |
| ADINHGENVFTANCSACHAGGNNVIMPEKTLQKDALSTNQMNSVGAITYQVTNGKNAMPAFGGRLSDDDIEDVASFVLSQSEKSWN | soluble |
| MFRLLVPTYYSYSVPLRFPFCKIYRYSTSNKMVAIKDITARQILDSRGNPTVEVDLLTDGGCFRAAVPSGASTGIYEALELRDKDQTKFMGKGVMKAVENIHKIIKPALIGKDPCDQKGIDKLMVEELDGTKNEWGWCKSKLGANAILAVSMACCRAGAAAKGMPLYKYIATLAGNPTDKMVMPVPFFNVINGGSHAGNKVAMQEFMIAPVGASTIQEAIQIGAEVYQHLKVVIKKKYGLDATNVGDEGGFAPNISGATEALDLLMEAIKVSGHEGKVKIAADVAASEFFLQDDKVYDLDFKTPNNDKSQRKTGEELRNLYKDLCQKYPFVSIEDPFDQDDFHSYAQLTNEVGEKVQIVGDDLLVTNPTRIEKAVQEKACNGLLLKVNQIGTVSESIEACQLAQKNKWGVMVSHRSGETEDSFIADLVVGLRTGQIKTGAPCRSERLCKYNQLMRIEESLGSDCQYAGAGFRHPN | soluble |
| GMAQAQTQGQEEEQKKKILIVVTHGPEDLDRTYAPLFMASISASMEYETSVFFMIKGPKLLDKKWQEEERKKGGNPFIHFFDMAKENGVKMYVCVQSLKDMCHMKEDDVVEGIELVGGSTLIDLTLEADRTLFF | soluble |
| MRIRIRVLSHFSSALGFDESSFSIGEGITFAELRSKLIEQFSAFVRPIEIGMYVNMKPVPDDYTMMDGDIVYVFPRSSTP | not soluble |
| MSVEGLGKDFCGAIIPDNFFPIEKLRNYTQMGLIRDFAKGSAVIMPGEEITSMIFLVEGKIKLDIIFEDGSEKLLYYAGGNSLIGKLYPTGNNIYATAMEPTRTCWFSEKSLRTVFRTDEDMIFEIFKNYLTKVAYYARQVAEMNTYNPTIRILRLFYELCSSQGKRVGDTYEITMPLSQKSIGEITGVHHVTVSRVLACLKRENILDKKKNKIIVYNLGELKHLSEQTSYYSDPNSSSVDKLAAALDHH | soluble |
| MGSDKIHHHHHHMNALQFQKKLLSMQENMMNFALMLTANRDDAQDLMQDTTLKVLDNQEKFVDNINFKGWVLTVMRNIFINNYHKIVRTQTVVDQGVDLYNLDVVNDSGFDSPDGAYQIQEITKAINGLNNELKVPFSMFLSGYKYNEIADKLDVPLGTVKSRIFFARQELQKVLKDFRQG | not soluble |
| AARSECKRSHKFVPGAWLAGEGVDVTSLRRSGSFPVDTQRFLRPDGTCTLCENALQEGTLQRLPLALTNWRAQGSGCQRHVTRAKVSSTEAVARDAARSIRNDWKVGLDVTPKPTSNVHVSVAGSHSQAANFAAQKTHQDQYSFSTDTVECRFYSFHVVHTPPLHPDFKRALGDLPHHFNASTQPAYLRLISNYGTHFIRAVELGGRISALTALRTCELALEGLTDNEVEDCLTVEAQVNIGIHGSISAEAKACEEKKKKHKMTASFHQTYRERHSEVVGGHHTSINDLLFGIQAGPEQYSAWVNSLPGSPGLVDYTLEPLHVLLDSQDPRREALRRALSQYLTDRARWRDCSRPCPPGRQKSPRDPCQCVCHGSAVTTQDCCPRQRGLAQLEVTFIQAWGLWGDWFTATDAYVKLFFGGQELRTSTVWDNNNPIWSVRLDFGDVLLATGGPLRLQVWDQDSGRDDDLLGTCDQAPKSGSHEVRCNLNHGHLKFRYHARCLPHLGGGTCLDYVPQMLLGEPPGNRSGAVW | soluble |
| MAELACFVSFSLTEDKVVWYPINKKAVQTMLCAKVEKDQRSNYYDTILYGVAPPPEFRNRFKTNERYGLDYESDQYTELVNLLADTLNMVSMPTEKFQFDIVKTVVQVRHLENLLCRIKDVNDILNANVKLRVKAVMIACNLVNETETTPLTESNDIVYQDSYFTITKLDYSNHKLLPLMADEYKITINTKTDIPDRNQTAFAAYIRYNFNKFAAISHGKRHWRLVLHSQLMSHAERLDRKIKSDKKHGRQFSYDDGDMAFVHPGWKTCIGQLCGGTTFEVAKTSLYSIKPSKTVRTATNKIESDLISMVGN | soluble |
| MGRYIGPVCRLCRREGVKLYLKGERCYSPKCAMERRPYPPGQHGQKRARRPSDYAVRLREKQKLRRIYGISERQFRNLFEEASKKKGVTGSVFLGLLESRLDNVVYRLGFAVSRRQARQLVRHGHITVNGRRVDLPSYRVRPGDEIAVAEKSRNLELIRQNLEAMKGRKVGPWLSLDVEGMKGKFLRLPDREDLALPVNEQLVIEFYSR | soluble |
| MAQPQLYLPEPFKIAYRKVGQCRRFQQLKKKNGSFKRKGIERWHRAVSTNLLKQNVLVPKEESSSDSDMGFHESQQNQKSNLKTKVKTAFGRMLSYKYRSKPACASQEGSTDHKEALLSNTQSLLPRIVKEFSSPKLFTAKMRKLSENATIQLDVVEAETEEITQGNTLLRARRTTKRLSVTSLPSGLQKGPYSPKKRPHFPALKKKKRGMENILRKSDLTVGKLQMQVDDLIETVTDKSMKLLAQRHAELQQCEFLGDEILQSSKQFQRISKRTMRKYKLKNMTTKGPGDS | soluble |
| MSLVIYMIGGSPCSGKSTIASLLARQYQLLHIKLDDLVDEMMSQASADSQPICLLRQDRNPEQIWMRNPKEMADEEWRFYEEIFPYVKSYLIKKDRPLLVEGAGLLPHLVKELEWPASSYLCLTPTADFQKKHYRQREWVSYVLEGTTNPEQAFENWMQRDILFAQMVRKEAMRLGYSSLMTDGSQSEKQTAEEIARLLKLYNINEIDIKGENEGHHHHHH | soluble |
| METPETRFCKESKVVKTSRVFPLDTNNHNTLFGGKLMSYIDDIASISAARHCRRETVTASMDSVDFLKPIGQKDSVCLESYVTWVGTSSMEVFVKVIKEHLMTGERELAATSFLTFVALDSNGKPVPVPRVVPETEEEIMLHNTAVQRANERKNRKRHSQALANALGTDKPWVNVKPKTLEHHHHHH | not soluble |
| MEREQRHKVIMRTIDRPGITRIDALTELTGVSAVTIHRDLVELEQAGFLARTHGGAKRVPKRGTPQPFAVRQAEDREAKRILAQATAQLIADDEAVIFDNGTTCQAVAQELAGRPITALCLSLHSAVALGSRAGTNVFIPGGPVENDSLALSGPAVITALRDFSADVVILGSCSTSLEHGLATTTYDDAENKRAAIHAATRRILVVSARKLNHVSTFRFADVADLHQLVTTSDAPREILAEIRDLGVQVITVPAPDEQRSLEHHHHHH | soluble |
